Laboratory results from patent publication US20220155321A1 (published 2022).

T1: peptide on HLA-A*01:01 (human)
T1 peptide: ASSLPTTMNY


Target: T1, peptide on HLA-A*01:01
Experiment: multimer staining

binding result | Binder
recognises | Reference C (TCR, V domains shown) Valpha: RKEVEQDPGPFNVPEGATVAFNCTYSNSASQSFFWYRQDCRKEPKLLMSVYSSGNEDGRFTAQLNRASQYISLLIRDSKLSDSATYLCVVPRMDSSYKLIFGSGTRLLVRP Vbeta: KAGVTQTPRYLIKTRGQQVTLSCSPISGHRSVSWYQQTPGQGLQFLFEYFSETQRNKGNFPGRFSGRQFSNSRSEMNVSTLELGDSALYLCASSSTGARRSREQYFGPGTRLTVT
recognises | Reference G (TCR, V domains shown) Valpha: SQQGEEDPQALSIQEGENATMNCSYKTSINNLQWYRQNSGRGLVHLILIRSNEREKHSGRLRVTLDTSKKSSSLLITASRAADTASYFCATAVFNFGNEKLTFGTGTRLTIIP Vbeta: KAGVTQTPRYLIKTRGQQVTLSCSPISGHRSVSWYQQTPGQGLQFLFEYFSETQRNKGNFPGRFSGRQFSNSRSEMNVSTLELGDSALYLCASSSMTSGGPWEQYFGPGTRLTVT
recognises | Reference E (TCR, V domains shown) Valpha: GQQVMQIPQYQHVQEGEDFTTYCNSSTTLSNIQWYKQRPGGHPVFLIQLVKSGEVKKQKRLTFQFGEAKKNSSLHITATQTTDVGTYFCAGQGNRDDKIIFGKGTRLHILP Vbeta: DGGITQSPKYLFRKEGQNVTLSCEQNLNHDAMYWYRQDPGQGLRLIYYSQIVNDFQKGDIAEGYSVSREKKESFPLTVTSAQKNPTAFYLCASSLEWGPYEQYFGPGTRLTVT
recognises | Reference F (TCR, V domains shown) Valpha: QKEVEQNSGPLSVPEGAIASLNCTYSDRGSQSFFWYRQYSGKSPELIMFIYSNGDKEDGRFTAQLNKASQYVSLLIRDSQPSDSATYLCAVKDNNARLMFGDGTQLVVKP Vbeta: KAGVTQTPRYLIKTRGQQVTLSCSPISGHRSVSWYQQTPGQGLQFLFEYFSETQRNKGNFPGRFSGRQFSNSRSEMNVSTLELGDSALYLCASSLSSGLYEQYFGPGTRLTVT
recognises | Reference H (TCR, V domains shown) Valpha: GESVGLHLPTLSVQEGDNSIINCAYSNSASDYFIWYKQESGKGPQFIIDIRSNMDKRQGQRVTVLLNKTVKHLSLQIAATQPGDSAVYFCAENMGGAGKSTFGDGTTLTVKP Vbeta: not shown
